Positions count from the first letter of the chain named. Values joined by “and” are separate entries in the source; they are usually repeats but may differ in a detail not shown here. Equal entries are not always repeated. Values belong to the binder of their own block, whether it stands above or below them.
Experiments:
human IL-1β = human IL-1β (human, UniProt P01584 117-269); test: cell-based or functional assay
human IL-1α = target: T1, human IL-1α (human, UniProt P01583 113-271); test: cell-based or functional assay
T1 sequence (looked up): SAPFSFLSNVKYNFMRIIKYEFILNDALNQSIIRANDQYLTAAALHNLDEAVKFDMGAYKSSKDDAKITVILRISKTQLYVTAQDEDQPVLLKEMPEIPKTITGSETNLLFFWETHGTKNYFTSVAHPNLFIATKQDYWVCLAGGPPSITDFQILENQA

B1: ABT2-65/ABT1-141 hu IgG1/K wt (bispecific antibody, V domains shown)
VH: EVQLLESGGGLVQPGGSLRLSCAASGFTFEDYQMGWVRQAPGKGLEWVSSISAMGNRTYYADSVKGRFTISRDDSKNTLYLQMNSLRAEDTAVYYCAKNLVRTQSKMWMFDYWGQGTLVTVSS
VL: DIQMTQSPSSLSASVGDRVTITCRASQWIQKQLAWYQQKPGKAPKLLIYSSSYLQSGVPRFSGSGSGTDFTLTISSLQPEDFATYYCQQHLRVPFTFGQGTKVEIKR
IL-1β IC50 (human IL-1β): 100 nM
IL-1α IC50 (human IL-1α): 7000 nM

B3: ABT2-65-8/ABT1-212 hu IgG1/K wt (bispecific antibody, V domains shown)
VH: B1 VH with K98Q, T103M, Q104D, K106R, M107R
VL: DIQMTQSPSSLSASVGDRVTITCRASQRINGNLRWYQQKPGKAPKLLIYSVSQLQSGVPSRFSGSGSGTDFTLTISSLQPEDFATYYCQQGYDWPPTFGQGTKVETKR
IL-1β IC50 (human IL-1β): 3.5 nM
IL-1α IC50 (human IL-1α): 5000 nM

B6: ABT2-65-201/ABT1-95-15 hu IgG1/K mut (234; 235) (bispecific antibody, V domains shown)
VH: B1 VH with A23V, N56R, D74N, K98Q, T103L, Q104G, S105R, K106S, M107R
VL: DIQMTQSPSSLSASVGDRVTITCRASQPIVRNLRWYQQKPGKAPKLLIYSSSYLEPGVPSRFSGSGSGTDFTLTISSLQPEDFATYHCQQGYRWPVTFGQGTKVEIKR
IL-1β IC50 (human IL-1β): 0.03 nM
IL-1α IC50 (human IL-1α): 0.652 nM

B7: ABT2-65-166/ABT1-95-15 hu IgG1/K wt (bispecific antibody, V domains shown)
VH: B1 VH with N56G, D74N, K98Q, T103L, Q104G, S105R, K106S, M107R
VL: B6 VL
IL-1β IC50 (human IL-1β): 0.13 nM
IL-1α IC50 (human IL-1α): 1.89 nM

B9: ABT2-108-534x/ABT1-122 hu IgG1/K wt (bispecific antibody, V domains shown)
VH: EVQLLESGGGLVQPGGSLRLSCAASGFTFADEGMMWVRQAPGKGLEWVSRITYSGKNTYYADSVKGRFTISRDNSKNTLYLQMNSLRAEDTAVYYCAKYTGRIFSHHLFDYWGQGTLVTVSS
VL: DIQMTQSPSSLSASVGDRVTITCRASQPIWTELNWYQQKPGKAPKLLIYGSSSLQSGVPRFSGSGSGTDFTLTISSLQPEDFATYYCQQFAYFPATFGQGTKVEIKR
IL-1β IC50 (human IL-1β): 0.025 nM and 0.035 nM
IL-1α IC50 (human IL-1α): 1000 nM

B11: ABT2-108-620x/ABT1-122-750M hu IgG1 wt (bispecific antibody, V domains shown)
VH: EVQLLESGGGLVQPGGSLRLSCAASGFTFAEESWMWVRQAPGKGLEWVSRIGQDGKNTYYREDVKGRFTISRDNSKNTLYLQMNSLRAEDTAVYYCAKYTGRIMGHHLFDYWGQGTLVTVSS
VL: DIQMTQSPSSLSASVGDRVTITCSASQHIWTEMSWYQQKPGKAPKLLIYGSASRQKGVPSRFSGSGSGTDFTLTISSLQPEDFATYYCKQFAYFPNTFGQGTKVEIKR
IL-1β IC50 (human IL-1β): 0.00555 nM
IL-1α IC50 (human IL-1α): 18.5 nM

B16: ABT2-108-620x/ABT1-122-750x huIgG1/K wt (bispecific antibody, V domains shown)
VH: B11 VH
VL: B11 VL with T20A, M33I
IL-1β IC50 (human IL-1β): 0.005 nM
IL-1α IC50 (human IL-1α): 17.5 nM

B17: ABT2-108-612/ABT1-122 hu IgG1/K wt (bispecific antibody, V domains shown)
VH: B11 VH with E32Y, S33T, W34M, R61A, E62D, D63S
VL: B9 VL
IL-1β IC50 (human IL-1β): 1 nM and 0.45 nM
IL-1α IC50 (human IL-1α): 100 nM

B18: ABT2-108-518/ABT1-122 hu IgG1/K wt (bispecific antibody, V domains shown)
VH: B11 VH with E32Y, S33T, W34M, E62M, I103V, M104G, G105V
VL: B9 VL
IL-1β IC50 (human IL-1β): 0.5 nM
IL-1α IC50 (human IL-1α): 400 nM

B21: ABT2-108-521/ABT1-95-A3 hu IgG1 wt (bispecific antibody, V domains shown)
VH: B11 VH with E32Y, S33T, W34M, R61A, E62D, D63S, M104L
VL: B6 VL with Q27K, I29G, L33M, S51V, Q89L, V96P
IL-1β IC50 (human IL-1β): 0.098 nM
IL-1α IC50 (human IL-1α): 0.027 nM

B22: ABT2-108-617/ABT1-122 hu IgG1/K wt (bispecific antibody, V domains shown)
VH: B9 VH with D31E, E32Y, G33T, T52G, Y53Q, S54D, S105T
VL: B9 VL
IL-1β IC50 (human IL-1β): 0.05 nM
IL-1α IC50 (human IL-1α): 150 nM

Continued, values first:

IL-1β IC50 (human IL-1β): 0.15 nM
IL-1α IC50 (human IL-1α): 0.068 nM
B2: ABT2-65-166/ABT1-95-184 hu IgG1mut 234, 235/K (bispecific antibody, V domains shown)
VH: B1 VH with N56G, D74N, K98Q, T103L, Q104G, S105R, K106S, M107R
VL: B6 VL with Q27R, P28T, I29P, S51R, Q89L, V96P

IL-1β IC50 (human IL-1β): 0.09 nM
IL-1α IC50 (human IL-1α): 450 nM
B4: ABT2-65-8/ABT1-141 hu IgG1/K wt (bispecific antibody, V domains shown)
VH: B1 VH with K98Q, T103M, Q104D, K106R, M107R
VL: B1 VL

IL-1β IC50 (human IL-1β): 0.4 nM
IL-1α IC50 (human IL-1α): 70 nM
B5: ABT2-65-17/ABT1-141 hu IgG1/K wt (bispecific antibody, V domains shown)
VH: B1 VH with A23V, K98Q, T103L, Q104G, S105R, K106S, M107R
VL: B1 VL

IL-1β IC50 (human IL-1β): 2000 nM
IL-1α IC50 (human IL-1α): 2000 nM
B8: ABT2-65/ABT1-122 hu IgG1/K wt (bispecific antibody, V domains shown)
VH: B1 VH
VL: B9 VL

IL-1β IC50 (human IL-1β): 10 nM
IL-1α IC50 (human IL-1α): 1500 nM
B10: ABT2-108-603/ABT1-122 hu IgG1/K wt (bispecific antibody, V domains shown)
VH: B9 VH with D31E, E32Y, G33T, Y53D, S54A, I103V, F104G, S105V
VL: B9 VL

IL-1β IC50 (human IL-1β): 0.01 nM
IL-1α IC50 (human IL-1α): 200 nM
B12: ABT2-108-538x/ABT1-221 huIgG1/K wt (second row of that name; light chain column ABT1-222) (bispecific antibody, V domains shown)
VH: B9 VH with F104L, S105G
VL: B6 VL with V30T, S50H, Y53V, E55Q, P56S, H87Y

IL-1β IC50 (human IL-1β): 0.01 nM
IL-1α IC50 (human IL-1α): 200 nM
B13: ABT2-108-538x/ABT1-221 huIgG1/K wt (bispecific antibody, V domains shown)
VH: B9 VH with F104L, S105G
VL: DIQMTQSPSSLSASVGDRVTITCRASQDIWPYLMWYQQKPGKAPKLLIYYSSMLQSGVPSRFSGSGSGTDFTLTISSLQPEDFATYYCQQFRRWPYTFGQGTKVEIKR

IL-1β IC50 (human IL-1β): 0.007 nM and 0.02 nM
IL-1α IC50 (human IL-1α): 1000 nM
B14: ABT2-108-537x/ABT1-122 hu IgG1/K wt (bispecific antibody, V domains shown)
VH: B11 VH with E31D, S33G, W34M, E62M, M104L
VL: B9 VL

IL-1β IC50 (human IL-1β): 0.00482 nM
IL-1α IC50 (human IL-1α): 10.1 nM
B15: ABT2-108-620x/ABT1-122-750MT hu IgG1 wt (bispecific antibody, V domains shown)
VH: B11 VH
VL: B11 VL with A43T

IL-1β IC50 (human IL-1β): 15 nM
IL-1α IC50 (human IL-1α): 1500 nM
B19: ABT2-108-504/ABT1-122 hu IgG1/K wt (bispecific antibody, V domains shown)
VH: B9 VH with T52G, Y53Q, S54D, I103V, F104G, S105V
VL: B9 VL

IL-1β IC50 (human IL-1β): 0.1 nM
IL-1α IC50 (human IL-1α): 20 nM
B20: ABT2-108-521/ABT1-141-25 hu IgG1/K wt (bispecific antibody, V domains shown)
VH: B11 VH with E32Y, S33T, W34M, R61A, E62D, D63S, M104L
VL: DIQMTQSPSSLSASVGDRVTITCRASQWIQKQLAWYQQKPGKAPKLLIYSSSYLQSGVPSRFSGSGSGTDFTLTISSLQPEDFATYYCQQHLRVPMTFGQGTKVEIKR

Reference: patent publication US20090291081A1 (AbbVie / Abbott, published 2009)
